Here are results for 21 sequences from a protein production outcome set (Wang et al. 2014).

The data set is described as follows: label from the status in PepcDB records.
“MALTFYQYPKCGTCQKAKKWLDQHGIEVNSVHIVEQPPSKEELKQLYEQSGLELKKFFNTSGKKYRELGLKDKVKEASEDELLETLASDGMLIKRPILTDGDKVTVGFKEAEYEETWKK”: the protein production entry is reported as “failed”.

As for “MALVLVKYGTDHPVEKLKIRSAKAEDKIVLIQNGVFWALEELETPAKVYAIKDDFLARGYSEEDSKVPLITYSEFIDLLEGEEKFIG”, the protein production result is listed as “not failed”.

In the case of “MALYWNLRLSVKNWRSIQNNEKLIFQVLWPLKLLVALKFISTLEERLIIPESDKPHTPPEGRLPDATKGFDLLRDVFAKRMGLSDKDIVALSGSHTPISPSQS”, the protein production entry is “failed”.

“MAMADVTIRGAGIFGLSIAWACVLRGARVQVVDPFGPGAGSSGGLVGALAPHVPENWNAKKAFQFDSLIMAEGFWAGVEAAGGVSPGYGRTGRIQPLADERAVDLADERAENARTLWQGQAEWRVCPVDEMGSWCPPSPTGLVVHDTLSARMHPRRACAALVGALAVRGVEVLAEAPDRGQVIHATGIAGLEELNRARGRLVGTGVKGQAALLRFDAGRQAPQLFADTVHIVPHADGTLAIGSTSERDYDDPTSTDAALDTVLDRAMQAVPLLHGAEVIERWAGVRPRSRSRAPMLGAHPLYPDQFIANGGFKIGFGMAPKVAHVMAELVLEGQDNIPQDFRPEASL”: the protein production result is “failed”.

In the case of “MAMGRTTQFTLDEVAKHADKDSCWLVIDGKVYAVEKFLNEHPGGEDVLLETAGRDATREFEDVGHSKSAREQLKEFYIGDVREPTAEELAAKRAVQASAAAERRDGDGVRANGLGKERLFAGGAFGAEPLSGGSSTWTLLKRLFVPVCIAVLVYLVREYSKQVQTGG”, the protein production result was “not failed”.

For the sequence “MAMLQTNLGFITSPTFLCPKLKVKLNSYLWFSYRSQGNFSYSLYTFKPMNLWFVQKLDFSKRVNRSYKRDALLLSIKCSSSTGFDNSNAVNSNVVVKEKSVSVILLAGGQGKRMKLCFWLRDVPKISLSLFLFCGVLEYEESIDVDLRFAIPGKERQDSVYSGLQEIDVNSELVCIHDSARPLVNTEDVEKVLKDGSAVGAAVLGVPAKATIKEVIKPELLKKGFELVKSEGLEVTDDVSIVEYLKHPVYVSQGSYTNIKVTTPDDLLLAERILSEDS”, the protein production entry was “failed”.

Consider “MANAKPVCSLFHSTFHDGIASVFHRSFSFPLLLILLIAFSGSGYANSSKETRAAARSESAGKTVSSRWAKGRLLVIPRAGLTAMEFDKATKPYGVKSRRRLNGLNAHVYELPDGVDEVKVLDKLKKDRRFKAVELDRLVEPAQVVTDPAFGNSWALPKIQAPAAWDIATGDGITIAILDTGVDGTHPDLAANMLPGWNAYDNNTDTSDIYGHGTKVAGTAAAVANNGAGSSGLAWNARILPVRISMPDGRAYLSDMAKGIRWAADNGARIANISYGGAESLTVQSAANYMRSKGGVVVMSAGNSGGLNNFPASNAIIVASATDSKDARASWSSYGPYVDVAAPGVSIYTTIRGGGYGYVSGTSFSSPIVAAAAALLFSINPDLAPTDIDQMLTATAQDLGNAGYDQYYGHGRINAASAVNAAHARISVDRTAPLISIASPTGGTVSGSVPVDVNYSDNKGVVRVDLYVNGRKTIEDTQPPFAFAWDTTTLANGSYTLVAYAFDAAGNQGTSSTVNVTVKNTVADTTPPTISITSPAGGAVVLGSVPVNVNSSDNIGVVRTELHVNGKKVMEGTGSSFVWDTKSLADGNYTLVAYAFDAAGNQGASSPVAVSVKNTGTTTNTEPLPQINSFNLRDGQNVSRNQNIRVTADRNTRKINLKINGGIIAAANGNSLSYRWNTSAIPKNSNITVTAEAFNAKGDATSRTVTVRN”, for which the protein production entry is given as “failed”.

As for “MANEDCPKAADSPFSSDKHAQLILAQINKMRNGQHFCDVQLQVGQESFKAHRLVLAASSPYFAALFTGGMKESSKDVVPILGIEAGIFQILLDFIYTGIVNIGVNNVQELIIAADMLQLTEVVHLCCEFLKGQIDPLNCIGIFQFSEQIACHDLLEFSENYIHVHFLEVHSGEEFLALTKDQLIKILRSEELSIEDEYQVFLAAMQWILKDLGKRRKHVVEVLDPIRFPLLPPQRLLKYIEGVSDFNLRVALQTLLKEYCEVCKSPKENKFCSFLQTSKVRPRKKARKYLYAVGGYTRLQGGRWSDSRALSCVERFDTFSQYWTTVSSLHQARSGLGVTVLGGMVYAIGGEKDSMIFDCTECYDPVTKQWTTVASMNHPRCGLGVCVCYGAIYALGGWVGAEIGNTIERFDPDENKWEVVGNMAVSRYYFGCCEMQGLIYVIGGISNEGIELRSFEVYDPLSKRWSPLPPMGTRRAYLGVAALNDCIYSVGGWNETQDALHTVEKYSFEEEKWVEVASMKVPRAGMCVVAVNGLLYVSGGRSSSHDFLAPGTLDSVEVYNPHSDTWTEIGNMITSRCEGGVAVL”, the protein production entry is recorded as “failed”.

Regarding “MANGRIEKIGQQLTTPSGYQVLDATGKHVTAGIVDEHSHIAINGGTNEGTDAVTAEVRIGDVINPEDVSIYRALAGGVTSAQLLHGSANPIGGQSQLIKMKWGESAEQLKFANAPASIKFALGENVKQSNWGEKFVQRFPQTRMGVKALFEETFDAALAYENALKDYDDLRSSEKKKTLAPRPSYRLQAVAEVLKQQRDVHIHSYVQSEILMFLRLAEAYRFKVQTFTHVLEGYKVASELAAHGAGASTFADWWAYKFEVYDAIPQNACLMQKQGVLTSINSDDYEMQRRLNQEAAKSMMYCGMSKEDAWNMVTIYPAKQLRVDEYVGSLTPGKMADIVLWNAEPLSIYAKVTHAWVEGKRYFDREQDQLAQQQVVTERAALIQKILSSDDNAKAGEKVTPLNEPQWHCDTHYQAWGQHHQGAK”, the protein production entry is on record as “failed”.

For “MANITFSSPVMAKDVTVYAVAGDRGTILAVAKSHSIPIPFDCQDGECGSCLVQVEHFNPKAKAAVALTEKEKEVLRQLGKITKEEIVDAEVNDIPPRYRLACQCFVRNEDILVKFEGDKTKPQRLAVTPAAAHYKGGMEINTPQEFFSYAAKVEEDAALHYDSLAKAMADAGNAPVAKLFAQLAEFSRLHLAEVKSRAGSIDLSKSVPPDYAWPDHATPERAAVWASDTTLTRLGALKAALQGERRGYEFYRAVEATTKSSEVAAAAKEFVNEEAEHVRILEAWITQEEWSLKHAAKAAENA”, the protein production entry is reported as “failed”.

In the case of “MANKKIDHREEAIELLKQDAKRILQLIKVQMDNLTLPQCPAYEEVLDTQMYGLSREINFATRLGLIEPEEGKKLISTLEKELSALHELSMSKK”, the protein production entry is recorded as “not failed”.

As for “MANKKNKVKFNICNVHYAPITVADEGKVSFGTPVAMPGAVSISMDPTGEPESFYADGIEYYVINNNQGYDGDLELAMIPETFRTDILKEEADSNNVLVENANSETGSFALLFEFDGDIRKIRHVLYNCSASRPTIESKTNEEDKEVQTETLTIKARPMADGYVKAKTGDSTTDTVYNNWYKSVYLPNSLEHHHHHH”, the protein production result is reported as “failed”.

In the case of “MANLAASTCLYSWLLVLLLSSVSAIIDEDTQVYIVYMGSLSSRADYIPTSDHMSILQQVTGESSIEGRLVRSYKRSFNGFAARLTESERTLIAEIEGVVSVFPNKILQLHTTTSWDFMGVKEGKNTKRNLAIESDTIIGVIDTGIWPESKSFSDKGFGPPPKKWKGVCSGGKNFTCNNKLIGARDYTSEGTRDTSGHGTHTASTAAGNAVKDTSFFGIGNGTVRGGVPASRIAAYKVCTDSGCSSEALLSSFDDAIADGVDLITISIGFQFPSIFEDDPIAIGAFHAMAKGILTVSSAGNSGPKPTTVSHVAPWIFTVAASTTNRGFITKVVLGNGKTLAGRSVNAFDMKGKKYPLVYGKSAASSACDAKTAALCAPACLNKSRVKGKILVCGGPSGYKIAKSVGAIAIIDKSPRPDVAFTHHLPASGLKAKDFKSLVSYIESQDSPQAAVLKTETIFNRTSPVIASFSSRGPNTIAVDILKPDITAPGVEILAAFSPNGEPSEDDTRRVKYSVFSGTSMACPHVAGVAAYVKTFYPRWSPSMIQSAIMTTAWPVKAKGRGIASTEFAYGAGHVDPMAALNPGLVYELDKADHIAFLCGMNYTSKTLKIISGDTVKCSKKNKILPRNLNYPSMSAKLSGTDSTFSVTFNRTLTNVGTPNSTYKSKVVAGHGSKLSIKVTPSVLYFKTVNEKQSFSVTVTGSDVDSEVPSSANLIWSDGTHNVRSPIVVYIMVVDEA”, the protein production result is “failed”.

Regarding “MANLPTVLVTGASGRTGQIVYKKLKEGSDKFVAKGLVRSAQGKEKIGGEADVFIGDITDADSINPAFQGIDALVILTSAVPKMKPGFDPTKGGRPEFIFEDGQYPEQVDWIGQKNQIDAAKVAGVKHIVVVGSMGGTNPDHPLNKLGNGNILVWKRKAEQYLADSGTPYTIIRAGGLLDKEGGVRELLVGKDDELLQTDTKTVPRADVAEVCIQALLFEEAKNKAFDLGSKPEGTSTPTKDFKALFSQVTSRF”, the protein production result is listed as “not failed”.

On to “MANNELQIAGSQGELRIRPYEHHAKYYETDQMGIIHHSNYVKWMEEARLDLMDQIGLNYRQMEDMEIISPVLSISVEYHSMVHFDDTVVIYTKLLKYNGIKMELEYVMKDKETGELRTTAKSSHCFLNKSGKPISLKRMYPELDTKFFEFKEA”, for which the protein production result is listed as “failed”.

As for “MANPPSQEADHLVEAFRYTVAKLFLQQAQKDHLKADKEAIFVLSELLLGYIEILTADLEAFCRHGKRTTITADDVLLCCRRNENLVSRHMLINRAAAEISSFP”, the protein production result is “failed”.

Regarding “MANRQRGVALIIVLMLLAIMATIAATMSERLFLQFQRGSNQIHYQQAYWYSVGVEALAEVGIEQSYKDSDTINLSQPWAIKEQVYPLDYGQAAGRIWDKQACFNLNVLSRVQPTGQQTTRPYLVQVLQRLLEESDVEPYQAEVIADSTWEYIDSDSTVRSTTGVEDSTYESMKPSYLAANGWMADKTELRAVYQVSGEIYQKIEPLVCAIPSDDWRLNVNTIEVEQAPILVAMFSPNLSSSDAVQLIEKRPFDGWDSVDEFLAESELTGLSDDVKKNAKGYLGVDSSFFELDAQVLVDDSRVRIRSLLQSTNRETVTVVRRRFGGISERVSDRSAE”, the protein production entry is on record as “failed”.

In the case of “MANVFLISSRNRRSMRTTTESKPKNLTVKRSDSSSDYNYSCKKHPKHRQSPGICSLCLNESLSKLSSEFYDYSSSMSSSSLAKTMSSCSSASSESESDFSSTAISSYYSSVSSCLSPLQHRYSEIVVNKKKKKHVKKQSFLSRLFLKQRIQTKAVIGWHMTLQLAIQLMYGKRKKTCHASFIQVWY”, the protein production result is “failed”.

In the case of “MAPAPAAEFWEARYRDTGRVWSGRPNELLVQEAGGLAPGTALDLGCGEGADAVWLASRGWRVTGVDISATALERAAGHADGAGVGDRVLWERHELGPSFPEGSFDLVSAHYLQSPVALDQQAVLRAAARAVAPGGTLLVVMHAGWPSWQTEPPFDAAFPTLDGVLAELALPEGEWSVETRRTARRPLEHHHHHH”, the protein production result was “failed”.

With “MAPAPAAEFWEARYRDTGRVWSGRPNELLVQEAGGLAPGTALDLGCGEGADAVWLASRGWRVTGVDISATALERAAGHADGAGVGDRVLWERHELGPSFPEGSFDLVSAHYLQSPVALDQQAVLRAAARAVAPGGTLLVVMHAGWPSWQTEPPFDAAFPTLDGVLAELALPEGEWSVETRRTARRPSVAPDGTEGFREDHVWRLKRAVLEHHHHHH”, the protein production entry is “not failed”.

For “MAPIFRNYRFAIGAFAVIMLILLIKTSSIGPPSIARTVTPNASIPKTPEDISILPVNDEPGYLQDSKTEQNYPELADAVKSQTSQTCSEEHKYVIMIDAGSTGSRVHIYKFDVCTSPPTLLDEKFDMLEPGLSSFDTDSVGAANSLDPLLKVAMNYVPIKARSCTPVAVKATAGLRLLGDAKSSKILSAVRDHLEKDYPFPVVEGDGVSIMGGDEEGVFAWITTNYLLGNIGANGPKLPTAAVFDLGGGSTQIVFEPTFPINEKMVDGEHKFDLKFGDENYTLYQFSHLGYGLKEGRNKVNSVLVENALKDGKILKGDNTKTHQLSSPCLPPKVNATNEKVTLESKETYTIDFIGPDEPSGAQCRFLTDEILNKDAQCQSPPCSFNGVHQPSLVRTFKESNDIYIFSYFYDRTRPLGMPLSFTLNELNDLARIVCKGEETWNSVFSGIAGSLDELESDSHFCLDLSFQVSLLHTGYDIPLQRELRTGKKIANKEIGWCLGASLPLLKADNWKCKIQSA”, the protein production result is recorded as “failed”.
